Data taken from patent publication US20140105889A1 (published 2014).
Positions count from the first letter of the chain named. In names and notes the source's numbering stands.

T1: human FcγRIIa type R (human, UniProt P12318 36-217)
T1 construct: also called FcgRIIaR; FcγRIIa(R)
T1 chain: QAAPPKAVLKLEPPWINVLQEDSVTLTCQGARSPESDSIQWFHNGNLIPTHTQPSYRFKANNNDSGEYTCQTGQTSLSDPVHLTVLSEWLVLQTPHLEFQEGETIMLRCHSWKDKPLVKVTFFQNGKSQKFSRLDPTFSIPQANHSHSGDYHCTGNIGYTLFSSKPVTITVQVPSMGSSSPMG

T2: human FcγRIIa type H (human, UniProt P12318 36-217)
T2 construct: also called FcgRIIaH; FcγRIIa(H)
T2 sequence: T1 chain with R133H

T3: human FcγRIIb (human, UniProt P31994 43-217)
T3 construct: also called FcgRIIb; FcγIIB
T3 sequence: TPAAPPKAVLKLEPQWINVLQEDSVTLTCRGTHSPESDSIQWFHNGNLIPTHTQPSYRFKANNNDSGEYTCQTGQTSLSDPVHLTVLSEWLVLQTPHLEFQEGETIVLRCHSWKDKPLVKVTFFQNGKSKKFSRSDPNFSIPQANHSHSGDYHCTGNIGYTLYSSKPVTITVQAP

B1: GpH7-B3 Q295G / GpL16-k0 (antibody, human IgG1)
heavy: not shown
light: DIVMTQSPLSLPVTPGEPASISCQASESLVHSNRNTYLHWYLQKPGQSPQLLIYKVSNRFSGVPDRFSGSGSGTDFTLKISRVEAEDVGVYYCSQNTHVPPTFGQGTKVEIE
notes: B3 variant: anti-glypican-3 IgG1 (constant region B3 = G1d with K439E) with one substitution, EU numbering; also called B3 variant Q295G; copies: 2 + 2
B2: GpH7-B3 Q295W / GpL16-k0 (antibody, human IgG1)
heavy: not shown
light: B1 light
notes: B3 variant: anti-glypican-3 IgG1 (constant region B3 = G1d with K439E) with one substitution, EU numbering; also called B3 variant Q295W; copies: 2 + 2
B3: GpH7-B3 S298G / GpL16-k0 (antibody, human IgG1)
heavy: not shown
light: B1 light
notes: B3 variant: anti-glypican-3 IgG1 (constant region B3 = G1d with K439E) with one substitution, EU numbering; also called B3 variant S298G; copies: 2 + 2
B4: GpH7-B3 Q295Y / GpL16-k0 (antibody, human IgG1)
heavy: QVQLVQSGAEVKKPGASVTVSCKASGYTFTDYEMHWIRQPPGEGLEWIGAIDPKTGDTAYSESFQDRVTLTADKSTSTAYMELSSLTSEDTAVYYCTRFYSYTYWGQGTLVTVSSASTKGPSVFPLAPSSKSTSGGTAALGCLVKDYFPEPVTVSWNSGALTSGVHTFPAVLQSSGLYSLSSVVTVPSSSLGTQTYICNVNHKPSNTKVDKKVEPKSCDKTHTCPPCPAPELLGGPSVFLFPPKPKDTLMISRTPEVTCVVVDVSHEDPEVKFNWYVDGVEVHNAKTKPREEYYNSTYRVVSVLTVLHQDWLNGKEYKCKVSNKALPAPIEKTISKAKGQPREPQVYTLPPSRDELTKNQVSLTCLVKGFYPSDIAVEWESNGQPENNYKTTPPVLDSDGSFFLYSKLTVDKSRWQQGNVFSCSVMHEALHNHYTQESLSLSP
light: B1 light
notes: B3 variant: anti-glypican-3 IgG1 (constant region B3 = G1d with K439E) with one substitution, EU numbering; also called B3 variant Q295Y; copies: 2 + 2
B5: GpH7-B3 S298K / GpL16-k0 (antibody, human IgG1)
heavy: not shown
light: B1 light
notes: B3 variant: anti-glypican-3 IgG1 (constant region B3 = G1d with K439E) with one substitution, EU numbering; also called B3 variant S298K; copies: 2 + 2
B6: GpH7-B3 S298R / GpL16-k0 (antibody, human IgG1)
heavy: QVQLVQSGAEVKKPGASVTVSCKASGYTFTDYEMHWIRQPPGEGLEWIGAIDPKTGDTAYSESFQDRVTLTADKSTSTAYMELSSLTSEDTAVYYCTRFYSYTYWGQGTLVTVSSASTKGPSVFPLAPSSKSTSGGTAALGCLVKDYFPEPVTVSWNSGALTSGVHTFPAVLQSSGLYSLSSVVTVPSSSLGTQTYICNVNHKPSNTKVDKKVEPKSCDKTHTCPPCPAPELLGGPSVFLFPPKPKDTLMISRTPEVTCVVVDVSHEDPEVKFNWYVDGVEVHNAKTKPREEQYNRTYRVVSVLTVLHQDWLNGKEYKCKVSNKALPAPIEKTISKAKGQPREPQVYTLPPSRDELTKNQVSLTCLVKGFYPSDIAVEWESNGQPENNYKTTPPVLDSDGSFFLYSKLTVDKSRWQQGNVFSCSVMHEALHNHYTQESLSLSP
light: B1 light
notes: B3 variant: anti-glypican-3 IgG1 (constant region B3 = G1d with K439E) with one substitution, EU numbering; also called B3 variant S298R; copies: 2 + 2
B7: GpH7-B3 Q295R / GpL16-k0 (antibody, human IgG1)
heavy: not shown
light: B1 light
notes: B3 variant: anti-glypican-3 IgG1 (constant region B3 = G1d with K439E) with one substitution, EU numbering; also called B3 variant Q295R; copies: 2 + 2
B8: GpH7-B3 Y296R / GpL16-k0 (antibody, human IgG1)
heavy: not shown
light: B1 light
notes: B3 variant: anti-glypican-3 IgG1 (constant region B3 = G1d with K439E) with one substitution, EU numbering; also called B3 variant Y296R; copies: 2 + 2
B9: GpH7-B3 Y296K / GpL16-k0 (antibody, human IgG1)
heavy: not shown
light: B1 light
notes: B3 variant: anti-glypican-3 IgG1 (constant region B3 = G1d with K439E) with one substitution, EU numbering; also called B3 variant Y296K; copies: 2 + 2
B10: GpH7-B3 Y296G / GpL16-k0 (antibody, human IgG1)
heavy: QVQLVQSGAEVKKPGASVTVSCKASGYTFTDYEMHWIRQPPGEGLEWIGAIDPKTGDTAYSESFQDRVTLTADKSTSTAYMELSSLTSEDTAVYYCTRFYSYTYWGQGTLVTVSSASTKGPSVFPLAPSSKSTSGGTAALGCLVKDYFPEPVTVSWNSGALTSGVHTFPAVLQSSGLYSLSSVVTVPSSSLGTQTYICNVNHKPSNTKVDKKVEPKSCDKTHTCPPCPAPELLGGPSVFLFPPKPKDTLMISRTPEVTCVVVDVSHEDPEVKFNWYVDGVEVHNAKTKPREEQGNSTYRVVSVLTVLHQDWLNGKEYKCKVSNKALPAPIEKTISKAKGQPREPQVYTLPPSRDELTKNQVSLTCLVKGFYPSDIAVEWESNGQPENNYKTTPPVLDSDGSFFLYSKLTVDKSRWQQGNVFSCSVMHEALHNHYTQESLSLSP
light: B1 light
notes: B3 variant: anti-glypican-3 IgG1 (constant region B3 = G1d with K439E) with one substitution, EU numbering; also called B3 variant Y296G; copies: 2 + 2
B11: GpH7-B3 S298W / GpL16-k0 (antibody, human IgG1)
heavy: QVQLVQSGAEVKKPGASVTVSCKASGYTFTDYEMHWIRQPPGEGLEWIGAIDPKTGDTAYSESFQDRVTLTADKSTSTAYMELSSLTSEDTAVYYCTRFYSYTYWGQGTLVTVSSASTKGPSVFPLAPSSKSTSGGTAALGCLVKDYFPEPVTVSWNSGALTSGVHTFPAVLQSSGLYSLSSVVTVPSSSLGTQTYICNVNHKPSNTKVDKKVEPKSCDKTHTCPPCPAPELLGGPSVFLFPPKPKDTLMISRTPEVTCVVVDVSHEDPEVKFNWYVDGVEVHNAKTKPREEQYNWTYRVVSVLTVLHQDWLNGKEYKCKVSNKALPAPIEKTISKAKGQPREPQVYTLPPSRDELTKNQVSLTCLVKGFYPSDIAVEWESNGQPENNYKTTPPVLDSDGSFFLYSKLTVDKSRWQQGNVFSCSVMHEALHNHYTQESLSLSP
light: B1 light
notes: B3 variant: anti-glypican-3 IgG1 (constant region B3 = G1d with K439E) with one substitution, EU numbering; also called B3 variant S298W; copies: 2 + 2
B12: GpH7-B3 Q295H / GpL16-k0 (antibody, human IgG1)
heavy: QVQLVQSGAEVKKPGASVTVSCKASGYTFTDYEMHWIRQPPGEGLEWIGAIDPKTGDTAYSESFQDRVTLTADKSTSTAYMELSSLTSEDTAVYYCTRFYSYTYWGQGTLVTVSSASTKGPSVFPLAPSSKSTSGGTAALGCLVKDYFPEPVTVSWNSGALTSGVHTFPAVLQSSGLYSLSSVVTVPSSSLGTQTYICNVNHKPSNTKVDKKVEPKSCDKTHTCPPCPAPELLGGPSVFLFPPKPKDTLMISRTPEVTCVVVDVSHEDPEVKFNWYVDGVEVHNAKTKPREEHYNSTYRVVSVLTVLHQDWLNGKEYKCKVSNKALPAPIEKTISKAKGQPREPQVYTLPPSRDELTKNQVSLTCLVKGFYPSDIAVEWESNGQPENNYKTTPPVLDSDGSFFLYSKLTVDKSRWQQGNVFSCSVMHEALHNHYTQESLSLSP
light: B1 light
notes: B3 variant: anti-glypican-3 IgG1 (constant region B3 = G1d with K439E) with one substitution, EU numbering; also called B3 variant Q295H; copies: 2 + 2
B13: GpH7-B3 S298Y / GpL16-k0 (antibody, human IgG1)
heavy: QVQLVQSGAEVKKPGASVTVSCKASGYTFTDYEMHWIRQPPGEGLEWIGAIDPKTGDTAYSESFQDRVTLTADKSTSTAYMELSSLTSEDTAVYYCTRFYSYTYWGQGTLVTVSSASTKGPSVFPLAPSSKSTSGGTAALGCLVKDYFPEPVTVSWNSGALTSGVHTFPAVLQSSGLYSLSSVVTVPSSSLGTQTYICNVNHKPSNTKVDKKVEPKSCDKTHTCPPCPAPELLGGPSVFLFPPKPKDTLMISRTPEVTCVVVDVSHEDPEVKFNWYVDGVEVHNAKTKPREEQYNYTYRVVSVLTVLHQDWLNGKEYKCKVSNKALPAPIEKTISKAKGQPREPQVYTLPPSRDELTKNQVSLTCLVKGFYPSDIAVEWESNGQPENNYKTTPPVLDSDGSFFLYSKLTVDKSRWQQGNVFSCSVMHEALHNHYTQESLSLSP
light: B1 light
notes: B3 variant: anti-glypican-3 IgG1 (constant region B3 = G1d with K439E) with one substitution, EU numbering; also called B3 variant S298Y; copies: 2 + 2
B14: GpH7-B3 Y300P / GpL16-k0 (antibody, human IgG1)
heavy: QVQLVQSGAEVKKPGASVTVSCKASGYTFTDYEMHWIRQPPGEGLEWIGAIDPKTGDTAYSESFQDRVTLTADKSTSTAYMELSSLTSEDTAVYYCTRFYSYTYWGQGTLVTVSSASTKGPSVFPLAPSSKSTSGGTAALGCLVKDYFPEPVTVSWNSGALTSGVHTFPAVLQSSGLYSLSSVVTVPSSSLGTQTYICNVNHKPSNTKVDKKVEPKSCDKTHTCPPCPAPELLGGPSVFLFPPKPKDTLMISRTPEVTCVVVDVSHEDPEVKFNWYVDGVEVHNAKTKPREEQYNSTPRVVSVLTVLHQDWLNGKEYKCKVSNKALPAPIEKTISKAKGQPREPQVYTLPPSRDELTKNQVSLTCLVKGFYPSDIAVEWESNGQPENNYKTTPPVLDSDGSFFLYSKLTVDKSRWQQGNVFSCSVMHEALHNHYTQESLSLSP
light: B1 light
notes: B3 variant: anti-glypican-3 IgG1 (constant region B3 = G1d with K439E) with one substitution, EU numbering; also called B3 variant Y300P; copies: 2 + 2
B15: GpH7-B3 Q295S / GpL16-k0 (antibody, human IgG1)
heavy: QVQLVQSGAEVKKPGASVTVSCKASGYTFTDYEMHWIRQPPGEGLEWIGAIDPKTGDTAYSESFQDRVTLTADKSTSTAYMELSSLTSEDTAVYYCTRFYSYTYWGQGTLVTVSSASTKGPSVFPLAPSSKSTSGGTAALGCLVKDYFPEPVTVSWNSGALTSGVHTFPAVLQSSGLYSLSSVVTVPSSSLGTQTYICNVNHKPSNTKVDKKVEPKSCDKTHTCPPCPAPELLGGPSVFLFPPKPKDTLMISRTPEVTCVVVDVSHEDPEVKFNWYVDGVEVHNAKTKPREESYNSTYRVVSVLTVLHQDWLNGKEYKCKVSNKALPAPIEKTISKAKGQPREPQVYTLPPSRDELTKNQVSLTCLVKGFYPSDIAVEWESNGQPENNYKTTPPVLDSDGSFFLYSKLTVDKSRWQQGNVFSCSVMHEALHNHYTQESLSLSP
light: B1 light
notes: B3 variant: anti-glypican-3 IgG1 (constant region B3 = G1d with K439E) with one substitution, EU numbering; also called B3 variant Q295S; copies: 2 + 2
B16: GpH7-B3 Q295N / GpL16-k0 (antibody, human IgG1)
heavy: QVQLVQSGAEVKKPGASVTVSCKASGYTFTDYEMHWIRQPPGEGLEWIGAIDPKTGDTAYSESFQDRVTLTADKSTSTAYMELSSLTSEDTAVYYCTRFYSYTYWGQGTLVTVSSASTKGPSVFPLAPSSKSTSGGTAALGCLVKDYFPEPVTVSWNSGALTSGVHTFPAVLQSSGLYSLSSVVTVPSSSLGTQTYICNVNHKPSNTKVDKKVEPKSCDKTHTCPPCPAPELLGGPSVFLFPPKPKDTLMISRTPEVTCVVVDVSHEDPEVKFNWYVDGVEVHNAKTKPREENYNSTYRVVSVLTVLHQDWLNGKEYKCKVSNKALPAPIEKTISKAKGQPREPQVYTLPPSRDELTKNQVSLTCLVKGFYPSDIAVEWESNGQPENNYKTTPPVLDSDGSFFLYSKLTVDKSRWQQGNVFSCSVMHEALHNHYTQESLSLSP
light: B1 light
notes: B3 variant: anti-glypican-3 IgG1 (constant region B3 = G1d with K439E) with one substitution, EU numbering; also called B3 variant Q295N; copies: 2 + 2
B17: GpH7-B3 Y300R / GpL16-k0 (antibody, human IgG1)
heavy: not shown
light: B1 light
notes: B3 variant: anti-glypican-3 IgG1 (constant region B3 = G1d with K439E) with one substitution, EU numbering; also called B3 variant Y300R; copies: 2 + 2
B18: GpH7-B3 S298P / GpL16-k0 (antibody, human IgG1)
heavy: not shown
light: B1 light
notes: B3 variant: anti-glypican-3 IgG1 (constant region B3 = G1d with K439E) with one substitution, EU numbering; also called B3 variant S298P; copies: 2 + 2
B19: IL6R-BP082/IL6R-L (antibody, human IgG1)
heavy: QVQLQESGPGLVKPSETLSLTCAVSGHSISHDHAWSWVRQPPGEGLEWIGFISYSGITNYNPSLQGRVTISRDNSKNTLYLQMNSLRAEDTAVYYCARSLARTTAMDYWGEGTLVTVSSASTKGPSVFPLAPSSKSTSGGTAALGCLVKDYFPEPVTVSWNSGALTSGVHTFPAVLQSSGLYSLSSVVTVPSSSLGTQTYICNVNHKPSNTKVDKKVEPKSCDKTHTCPPCPAPDLLGGDSVFLFPPKPKDTLMISRTPEVTCVVVDVSHEDPEVKFNWYVDGVEVHNAKTKPREEQYNSTYRVVSVLTVLHQDWLNGKEYKCKVSNKALPKPIEKTISKAKGQPREPQVYTLPPSRDELTKNQVSLTCLVKGFYPSDIAVEWESNGQPENNYKTTPPVLDSDGSFFLYSKLTVDKSRWQQGNVFSCSVMHEALHNHYTQESLSLSP
light: DIQMTQSPSSLSASVGDRVTITCRASQDISSYLNWYQQKPGKAPKLLIYYTSRLHSGVPSRFSGSGSGTDFTFTISSLQPEDIATYYCQQGNTLPYTFGQGTKVEIK
B20: IL6R-BP178/IL6R-L (antibody, human IgG1)
heavy: B19 heavy with G239D, P273G
light: B19 light
B21: IL6R-BP181/IL6R-L (antibody, human IgG1)
heavy: B19 heavy with P273G, K328A
light: B19 light
B22: IL6R-BP131/IL6R-L (antibody, human IgG1)
heavy: B19 heavy with G239D
light: B19 light
B23: IL6R-BP151/IL6R-L (antibody, human IgG1)
heavy: B19 heavy with L236Y, G239D, K328A, K332R
light: B19 light
B24: IL6R-BP152/IL6R-L (antibody, human IgG1)
heavy: B19 heavy with L236Y, G239D, Y298D, K328A, K332R
light: B19 light
B25: IL6R-BP130/IL6R-L (antibody, human IgG1)
heavy: B19 heavy with V325M
light: B19 light
B26: IL6R-BP176/IL6R-L (antibody, human IgG1)
heavy: B19 heavy with K328D
light: B19 light
B27: IL6R-2B253/IL6R-L (antibody, human IgG1)
heavy: B19 heavy with V325M, K332A
light: B19 light
B28: IL6R-BP146/IL6R-L (antibody, human IgG1)
heavy: B19 heavy with D235E, L236Y, G239D, K328A, K332A
light: B19 light

target: T4, human FcγRIIIa(F) (human, UniProt P08637 17-208, limits assumed); experiment: SPR (Biacore), antibody captured, FcγR as analyte
T4 construct: also called FcgRIIIaF; FcγRIIIa allotype F158
T4 sequence (P08637 other isoform, or with tags, fused parts or gaps limits assumed): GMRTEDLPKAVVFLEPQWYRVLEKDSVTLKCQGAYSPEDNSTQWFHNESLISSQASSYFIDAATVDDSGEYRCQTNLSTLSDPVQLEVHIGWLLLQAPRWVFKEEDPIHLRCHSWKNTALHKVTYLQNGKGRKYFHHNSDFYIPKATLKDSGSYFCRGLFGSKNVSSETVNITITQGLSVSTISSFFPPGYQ
Experimental: Interaction between each modified antibody and Fcγ receptor prepared in the manner described above was analyzed using the Biacore T100 (GE Healthcare), Biacore T200 (GE Healthcare), Biacore A100 or Biacore 4000. HBS-EP+ (GE Healthcare) was used for the running buffer, and measurements were carried out at 25° C. The chips used were chips in which antigen peptides, Protein A (Thermo Scientific), Protein A/G (Thermo Scientific) or Protein L (ACTIGEN or BioVision) were immobilized on the Series S Sensor Chip CM5 (GE Healthcare) or Series S Sensor Chip CM4 (GE Healthcare) by amine coupling, or chips in which preliminarily biotinylated antigen peptides were allowed to interact and then immobilized on the Series S Sensor Chip SA (certified) (GE Healthcare). The target antibodies were captured on these sensor chips, Fcγ receptor diluted with the running buffer was allowed to interact, followed by measurement of the amount of bound antibody. The amounts bound were compared between antibodies. However, since the amount of Fcγ receptor bound depends on the amount of captured antibody, the values used for comparison were first corrected by dividing the amount of Fcγ receptor bound by the captured amount of each antibody. Through reaction with 10 mM glycine-HCl at pH 1.5, the sensor chips were regenerated by washing off antibody captured on the sensor chips and used repeatedly.
Binding strength was evaluated according to the following method based on the results of analyzing the interaction with each FcγR. […] That value was then further multiplied by 100, and the resulting value was used as an indicator of relative binding activity to each FcγR.

| Binder | relative binding activity (amount bound / amount bound by GpH7-B3/GpL16-k0 x100) |
| --- | --- |
| B1 | 55 % of GpH7-B3/GpL16-k0 |
| B2 | 10 % of GpH7-B3/GpL16-k0 |
| B3 | 59 % of GpH7-B3/GpL16-k0 |
| B4 | 49 % of GpH7-B3/GpL16-k0 |
| B5 | 25 % of GpH7-B3/GpL16-k0 |
| B6 | 20 % of GpH7-B3/GpL16-k0 |
| B7 | 52 % of GpH7-B3/GpL16-k0 |
| B8 | 38 % of GpH7-B3/GpL16-k0 |
| B9 | 21 % of GpH7-B3/GpL16-k0 |
| B10 | 21 % of GpH7-B3/GpL16-k0 |
| B11 | 11 % of GpH7-B3/GpL16-k0 |
| B12 | 52 % of GpH7-B3/GpL16-k0 |
| B13 | 71 % of GpH7-B3/GpL16-k0 |
| B14 | -1 % of GpH7-B3/GpL16-k0 |
| B15 | 87 % of GpH7-B3/GpL16-k0 |
| B16 | 68 % of GpH7-B3/GpL16-k0 |
| B17 | 12 % of GpH7-B3/GpL16-k0 |
| B18 | 0 % of GpH7-B3/GpL16-k0 |

target: T5, human FcγRIa (human, UniProt P12314 16-292, limits assumed); experiment: SPR (Biacore), FcγR over captured antibody; binding amount / that of IL6R-BF648/IL6R-L x100
T5 construct: also called FcgRIa; CD64
T5 sequence (P12314 16-292 limits assumed): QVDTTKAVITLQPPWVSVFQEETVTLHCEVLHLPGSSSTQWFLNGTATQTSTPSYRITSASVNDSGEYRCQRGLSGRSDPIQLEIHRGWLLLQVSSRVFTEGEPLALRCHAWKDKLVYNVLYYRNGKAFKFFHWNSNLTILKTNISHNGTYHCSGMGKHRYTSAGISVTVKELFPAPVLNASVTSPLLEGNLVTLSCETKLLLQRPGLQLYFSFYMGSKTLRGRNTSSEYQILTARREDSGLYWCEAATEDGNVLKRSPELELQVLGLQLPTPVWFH
Experimental: (§1) According to the following method, relative binding activities were calculated for the results of analyzing interactions with the respective FcγRs.

| Binder | relative binding activity |
| --- | --- |
| B19 | 74 % of IL6R-BF648/IL6R-L |
| B20 | 51 % of IL6R-BF648/IL6R-L |
| B21 | 108 % of IL6R-BF648/IL6R-L |
| B22 | 33 % of IL6R-BF648/IL6R-L |
| B23 | 39 % of IL6R-BF648/IL6R-L |
| B24 | 34 % of IL6R-BF648/IL6R-L |
| B25 | 104 % of IL6R-BF648/IL6R-L |
| B26 | 102 % of IL6R-BF648/IL6R-L |
| B27 | 155 % of IL6R-BF648/IL6R-L |

Target: T1, human FcγRIIa type R
Experiment: as above
Experimental: as §1

| Binder | relative binding activity |
| --- | --- |
| B19 | 126 % of IL6R-BF648/IL6R-L |
| B28 | 445 % of IL6R-BF648/IL6R-L |
| B20 | 653 % of IL6R-BF648/IL6R-L |
| B21 | 362 % of IL6R-BF648/IL6R-L |
| B22 | 364 % of IL6R-BF648/IL6R-L |
| B23 | 705 % of IL6R-BF648/IL6R-L |
| B24 | 638 % of IL6R-BF648/IL6R-L |
| B25 | 272 % of IL6R-BF648/IL6R-L |
| B26 | 201 % of IL6R-BF648/IL6R-L |
| B27 | 288 % of IL6R-BF648/IL6R-L |

target: T2, human FcγRIIa type H; experiment: as above
Experimental: as §1

| Binder | relative binding activity |
| --- | --- |
| B19 | 106 % of IL6R-BF648/IL6R-L |
| B28 | 203 % of IL6R-BF648/IL6R-L |
| B20 | 259 % of IL6R-BF648/IL6R-L |
| B21 | 150 % of IL6R-BF648/IL6R-L |
| B22 | 253 % of IL6R-BF648/IL6R-L |
| B23 | 621 % of IL6R-BF648/IL6R-L |
| B24 | 548 % of IL6R-BF648/IL6R-L |
| B25 | 224 % of IL6R-BF648/IL6R-L |
| B26 | 128 % of IL6R-BF648/IL6R-L |
| B27 | 207 % of IL6R-BF648/IL6R-L |

target: T3, human FcγRIIb; experiment: as above
Experimental: as §1

| Binder | relative binding activity |
| --- | --- |
| B19 | 136 % of IL6R-BF648/IL6R-L |
| B28 | 156 % of IL6R-BF648/IL6R-L |
| B20 | 179 % of IL6R-BF648/IL6R-L |
| B24 | 178 % of IL6R-BF648/IL6R-L |
| B26 | 147 % of IL6R-BF648/IL6R-L |
| B27 | 156 % of IL6R-BF648/IL6R-L |

target: T6, human FcγRIIIa type V (human, UniProt P08637 17-208, limits assumed); experiment: as above
T6 construct: Allotype V158 was used; also called FcgRIIIaV; FcγRIIIa(V)
T6 sequence (P08637 other isoform, or with tags, fused parts or gaps limits assumed): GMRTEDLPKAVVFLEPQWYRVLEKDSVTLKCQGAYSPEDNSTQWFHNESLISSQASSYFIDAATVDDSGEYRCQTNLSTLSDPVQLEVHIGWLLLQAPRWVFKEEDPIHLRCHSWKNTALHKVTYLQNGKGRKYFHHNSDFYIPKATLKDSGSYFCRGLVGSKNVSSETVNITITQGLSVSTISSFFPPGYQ
Experimental: as §1

| Binder | relative binding activity |
| --- | --- |
| B19 | 87 % of IL6R-BF648/IL6R-L |
| B21 | 122 % of IL6R-BF648/IL6R-L |
| B22 | 118 % of IL6R-BF648/IL6R-L |
| B23 | 221 % of IL6R-BF648/IL6R-L |
| B27 | 126 % of IL6R-BF648/IL6R-L |
